One data set concerns the target T1, elastin (Bos taurus, UniProt P04985).
T1 construct: purchased Sigma-Aldrich
T1 sequence (P04985 27-747): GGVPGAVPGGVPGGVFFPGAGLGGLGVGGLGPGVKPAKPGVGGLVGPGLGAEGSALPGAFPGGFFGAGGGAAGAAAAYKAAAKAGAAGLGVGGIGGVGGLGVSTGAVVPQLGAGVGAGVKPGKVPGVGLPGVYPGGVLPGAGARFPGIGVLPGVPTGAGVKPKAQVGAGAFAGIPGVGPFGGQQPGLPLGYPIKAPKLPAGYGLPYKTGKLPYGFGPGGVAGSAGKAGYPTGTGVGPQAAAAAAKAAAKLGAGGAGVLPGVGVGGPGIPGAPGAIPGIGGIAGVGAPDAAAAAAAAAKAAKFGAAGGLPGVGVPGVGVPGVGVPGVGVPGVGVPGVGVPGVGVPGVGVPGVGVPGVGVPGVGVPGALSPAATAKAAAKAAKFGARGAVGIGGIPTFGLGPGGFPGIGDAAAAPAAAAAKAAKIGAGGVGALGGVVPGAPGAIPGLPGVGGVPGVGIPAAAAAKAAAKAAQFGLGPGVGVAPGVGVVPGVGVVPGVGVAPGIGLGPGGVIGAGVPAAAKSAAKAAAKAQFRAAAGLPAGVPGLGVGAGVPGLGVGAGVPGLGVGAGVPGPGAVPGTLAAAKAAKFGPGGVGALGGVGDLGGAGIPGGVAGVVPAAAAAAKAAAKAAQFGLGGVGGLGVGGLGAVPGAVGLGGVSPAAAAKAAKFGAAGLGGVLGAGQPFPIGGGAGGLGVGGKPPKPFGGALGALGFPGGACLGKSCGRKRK
The experiment in a line: ECM specificity binding test, elastin coating. As to conditions: 5.0 mg/ml peptide, FIG. 4. Also on record: species or system bovine. How it is done:
(§1) Peptides were incubated 24 hours at 37° C. on collagens I-IV, elastin, hyaluronic acid, and Geltrex. Coatings (10 pig/cm^2) were previously dried overnight in milli-Q water. Overall significance was assessed using analysis of variance, with Tukey's multiple comparison post-hoc analysis between ECM groups where n=4.
(§2) Biotinylated peptides were custom synthesized by ABI Scientific, Inc. (Sterling, VA). Uranyl acetate and TEM grids were from Ted Pella, Inc (Redding, CA). Unless specified otherwise, all water used in these experiments was Milli-Q grade. HA (˜1 MDa), collagen types I (rat), II (chicken), III (human), and IV (mouse), elastin (bovine), deuterium oxide (D2O), acetic acid-d4, sodium acetate-d3, 3-(Trimethylsilyl)propionic-2,2,3,3-d6 (DSS-D6) acid sodium salt, and 2,2,2-trifluoroethanol (TFE) and were obtained from Sigma-Aldrich (St. Louis, MO). Streptavidin (Alexa Fluor 488 conjugate) and Geltrex were obtained from Thermo Fisher Scientific Inc. (Waltham, MA). Sodium hyaluronate (5 and 60 KDa) was purchased from Lifecore Biomedical LLC (Chaska, MN). In reference to terminology, N and C termini is used to describe the amino terminal (N) and the carboxyl terminal (C) of the peptide. The biotinylated peptides are used in every experiment.
Hyaluronic acid, collagens I, II, III, and IV, elastin, and Geltrex were coated onto 96-well black plates (medium binding affinity) at 10 μg/cm^2 and were dried in milli-Q water at room temperature. N-termini biotinylated peptides were added to coated plates at 0, 1, 2.5, 5 and 10 mg/ml overnight at 37° C. in phosphate buffered saline (PBS), pH 7.4, after which the plates were washed three times with PBS. Fluorescent streptavidin-488 (4 μg/mL) was added to each well and incubated at 37° C. temperature for 24 hours, then thoroughly washed with PBS. The plates were read with a fluorescence microplate reader for fluorescence intensity (Ex 490 nm, Em 525 nm). All data were normalized to the background fluorescence intensity of Streptavidin-488.

The subject of data set [1] is extracellular matrix (ECM) components: Collagen type I, II, III and IV, elastin, hyaluronic acid and Geltrex. The experiment in a line: ECM specificity binding test, whole panel. The conditions noted are these: 5.0 mg/ml peptide, FIG. 4.
The target in a further data set is T2, collagen type I (Rattus norvegicus, UniProt P02454+P02466).
T2 construct: purchased Sigma-Aldrich
Kind of data set: ECM specificity binding test, collagen type I coating. The conditions noted are these: 5.0 mg/ml peptide, FIG. 4. How it is done:
as §1
as §2, with “Sodium hyaluronate (5 and 60 KDa) was purchased from Lifecore Biomedical LLC (Chaska, MN). In reference to terminology, N and C termini is used to describe the amino terminal (N) and the carboxyl terminal (C) of the peptide. The biotinylated peptides are used in every experiment.” left out
(§3) Hyaluronic acid, collagens I, II, III, and IV, elastin, and Geltrex were coated onto 96-well black plates (medium binding affinity) at 10 μg/cm^2 and were dried in milli-Q water at room temperature. […] The plates were read with a fluorescence microplate reader for fluorescence intensity (Ex 490 nm, Em 525 nm). All data were normalized to the background fluorescence intensity of Streptavidin-488.

Data set [2] can be described thus: Circular dichroism (CD) of peptides. The conditions noted are these: 20 mM Sodium Cacodylate; for Ellipticity ratio (222 nm/208 nm) / Ellipticity 208 nm / Ellipticity 222 nm: 1.25 mg/mL; for Ellipticity 208 nm / Ellipticity 222 nm: CD data given as [θ]M×10^−3; for wavelength Minimum of CD profile: 5.0 mg/mL. The format is physicochemical.
A further data set has as its target T3, collagen type IV (Mus musculus, UniProt P02463+P08122).
T3 construct: purchased Sigma-Aldrich
Kind of data set: ECM specificity binding test, collagen type IV coating. The conditions noted are these: 5.0 mg/ml peptide, FIG. 4. As for the experimental part: as §1
as §2, with “Sodium hyaluronate (5 and 60 KDa) was purchased from Lifecore Biomedical LLC (Chaska, MN). In reference to terminology, N and C termini is used to describe the amino terminal (N) and the carboxyl terminal (C) of the peptide. The biotinylated peptides are used in every experiment.” left out
as §3

The target in another data set is T4, collagen type I (rat) (rat, UniProt P02454 152-1207; P02466 86-1125).
T4 construct: Coated and dried on 96-well plates at 10 ug/cm2; also called collagen I
The experiment in a line: plate assay: biotinylated peptide on dried ECM coating (10 ug/cm2), streptavidin-488 fluorescence. As for the experimental part:
(§4) Peptides were incubated 24 hours at 37° C. on collagens I-IV, elastin, hyaluronic acid, and Geltrex. Coatings (10 pig/cm²) were previously dried overnight in milli-Q water. Overall significance was assessed using analysis of variance, with Tukey's multiple comparison post-hoc analysis between ECM groups where n=4.
(§5) N-termini biotinylated peptides were added to coated plates at 0, 1, 2.5, 5 and 10 mg/ml overnight at 37° C. in phosphate buffered saline (PBS), pH 7.4, after which the plates were washed three times with PBS. Fluorescent streptavidin-488 (4 μg/mL) was added to each well and incubated at 37° C. temperature for 24 hours, then thoroughly washed with PBS. The plates were read with a fluorescence microplate reader for fluorescence intensity (Ex 490 nm, Em 525 nm). All data were normalized to the background fluorescence intensity of Streptavidin-488.

The next data set deals with T5, collagen type IV (mouse) (mouse, UniProt P02463 28-1669; P08122 26-1707).
T5 construct: IV (mouse)'; Coated and dried on plates at 10 ug/cm2; also called collagen IV
The description is as above. How it is done:
as §4, §5

The target of the next data set is T6, elastin (bovine) (bovine, UniProt P04985 27-747, limits assumed).
T6 construct: Coated and dried on plates at 10 ug/cm2
T6 sequence (looked up): T1 sequence (P04985 27-747)
Described as above. How it is done: as §4, §5

Data set [3] concerns the target T7, collagen type III (human) (human, UniProt P02461 154-1221).
T7 construct: III (human)'; Coated and dried on plates at 10 ug/cm2; also called collagen III
T7 sequence (looked up): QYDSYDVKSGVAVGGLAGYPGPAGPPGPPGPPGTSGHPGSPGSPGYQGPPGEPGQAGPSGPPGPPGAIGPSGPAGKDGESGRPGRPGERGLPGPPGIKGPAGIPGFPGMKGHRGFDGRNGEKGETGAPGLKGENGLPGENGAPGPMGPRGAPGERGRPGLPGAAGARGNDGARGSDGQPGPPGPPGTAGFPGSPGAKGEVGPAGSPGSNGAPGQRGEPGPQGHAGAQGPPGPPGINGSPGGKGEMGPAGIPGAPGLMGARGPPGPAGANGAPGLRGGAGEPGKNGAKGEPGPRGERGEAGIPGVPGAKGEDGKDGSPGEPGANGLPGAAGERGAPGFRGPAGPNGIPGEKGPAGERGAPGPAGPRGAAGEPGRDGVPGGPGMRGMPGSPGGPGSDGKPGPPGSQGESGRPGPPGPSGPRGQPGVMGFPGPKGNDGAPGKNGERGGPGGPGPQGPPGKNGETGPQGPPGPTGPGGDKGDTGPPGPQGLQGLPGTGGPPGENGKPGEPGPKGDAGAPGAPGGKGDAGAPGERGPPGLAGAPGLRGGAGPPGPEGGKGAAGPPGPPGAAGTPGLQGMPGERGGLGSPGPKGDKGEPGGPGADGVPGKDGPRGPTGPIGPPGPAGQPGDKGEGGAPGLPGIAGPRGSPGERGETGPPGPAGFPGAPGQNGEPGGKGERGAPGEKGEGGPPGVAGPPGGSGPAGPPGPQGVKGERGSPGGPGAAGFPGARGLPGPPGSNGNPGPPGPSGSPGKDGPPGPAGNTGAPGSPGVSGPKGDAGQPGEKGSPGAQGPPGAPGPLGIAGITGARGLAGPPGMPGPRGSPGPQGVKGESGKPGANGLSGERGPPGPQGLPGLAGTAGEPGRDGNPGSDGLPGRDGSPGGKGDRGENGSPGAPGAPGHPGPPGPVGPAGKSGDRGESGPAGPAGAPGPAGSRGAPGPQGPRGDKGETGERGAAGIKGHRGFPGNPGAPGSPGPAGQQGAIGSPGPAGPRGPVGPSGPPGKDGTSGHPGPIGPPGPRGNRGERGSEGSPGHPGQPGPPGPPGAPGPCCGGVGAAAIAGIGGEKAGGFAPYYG
The description is as above. How it is done:
as §4, §5

The star is where a group is joined. Biotin = O=C1N[C@H]2[C@H](CS[C@H]2CCCCC(=O)*)N1

T5 sequence (P02463 28-1669, chain 1 of 2): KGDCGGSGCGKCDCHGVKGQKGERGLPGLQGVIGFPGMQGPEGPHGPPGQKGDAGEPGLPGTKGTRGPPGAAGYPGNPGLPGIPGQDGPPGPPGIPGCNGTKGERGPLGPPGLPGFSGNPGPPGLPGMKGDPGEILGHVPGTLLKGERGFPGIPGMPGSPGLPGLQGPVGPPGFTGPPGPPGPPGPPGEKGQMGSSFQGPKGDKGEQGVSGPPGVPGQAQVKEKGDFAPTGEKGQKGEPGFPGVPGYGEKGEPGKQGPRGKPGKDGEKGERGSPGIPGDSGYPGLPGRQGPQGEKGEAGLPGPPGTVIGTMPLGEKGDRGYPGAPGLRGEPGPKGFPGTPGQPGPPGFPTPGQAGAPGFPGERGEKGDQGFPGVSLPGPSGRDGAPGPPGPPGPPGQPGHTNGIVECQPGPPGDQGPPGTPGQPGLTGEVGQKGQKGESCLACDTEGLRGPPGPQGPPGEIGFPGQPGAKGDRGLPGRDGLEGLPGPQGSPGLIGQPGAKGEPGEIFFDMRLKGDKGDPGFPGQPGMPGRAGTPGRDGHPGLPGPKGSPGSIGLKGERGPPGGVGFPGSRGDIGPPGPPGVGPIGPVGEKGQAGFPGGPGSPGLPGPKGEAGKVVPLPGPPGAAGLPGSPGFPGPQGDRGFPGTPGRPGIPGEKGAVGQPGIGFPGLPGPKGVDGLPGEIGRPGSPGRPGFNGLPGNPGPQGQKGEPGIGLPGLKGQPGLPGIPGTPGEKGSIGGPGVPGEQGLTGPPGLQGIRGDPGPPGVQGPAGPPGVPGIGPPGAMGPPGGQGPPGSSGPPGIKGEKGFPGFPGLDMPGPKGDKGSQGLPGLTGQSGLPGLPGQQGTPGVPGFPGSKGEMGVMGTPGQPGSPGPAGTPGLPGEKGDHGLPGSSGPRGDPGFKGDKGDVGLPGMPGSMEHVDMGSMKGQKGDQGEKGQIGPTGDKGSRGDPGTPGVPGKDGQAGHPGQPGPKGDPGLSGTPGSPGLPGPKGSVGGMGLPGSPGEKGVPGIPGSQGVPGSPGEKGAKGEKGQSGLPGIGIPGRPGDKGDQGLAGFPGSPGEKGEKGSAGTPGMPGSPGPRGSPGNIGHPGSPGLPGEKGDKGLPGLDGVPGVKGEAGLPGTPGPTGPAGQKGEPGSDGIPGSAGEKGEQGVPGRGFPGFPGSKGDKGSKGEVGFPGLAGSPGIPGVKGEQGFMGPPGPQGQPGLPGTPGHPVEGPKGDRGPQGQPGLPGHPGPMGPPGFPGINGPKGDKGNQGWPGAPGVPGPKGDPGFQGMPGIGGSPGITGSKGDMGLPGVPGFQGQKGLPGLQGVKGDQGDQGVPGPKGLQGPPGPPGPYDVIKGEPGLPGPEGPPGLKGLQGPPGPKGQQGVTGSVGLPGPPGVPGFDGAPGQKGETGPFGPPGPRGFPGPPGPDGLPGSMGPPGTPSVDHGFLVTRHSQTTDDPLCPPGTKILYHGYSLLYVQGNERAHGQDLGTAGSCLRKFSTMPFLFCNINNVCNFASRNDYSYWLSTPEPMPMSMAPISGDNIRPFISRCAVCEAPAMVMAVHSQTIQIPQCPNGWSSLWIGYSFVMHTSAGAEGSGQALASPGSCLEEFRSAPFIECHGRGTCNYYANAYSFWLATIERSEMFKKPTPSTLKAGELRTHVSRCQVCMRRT
T5 sequence (P08122 26-1707, chain 2 of 2): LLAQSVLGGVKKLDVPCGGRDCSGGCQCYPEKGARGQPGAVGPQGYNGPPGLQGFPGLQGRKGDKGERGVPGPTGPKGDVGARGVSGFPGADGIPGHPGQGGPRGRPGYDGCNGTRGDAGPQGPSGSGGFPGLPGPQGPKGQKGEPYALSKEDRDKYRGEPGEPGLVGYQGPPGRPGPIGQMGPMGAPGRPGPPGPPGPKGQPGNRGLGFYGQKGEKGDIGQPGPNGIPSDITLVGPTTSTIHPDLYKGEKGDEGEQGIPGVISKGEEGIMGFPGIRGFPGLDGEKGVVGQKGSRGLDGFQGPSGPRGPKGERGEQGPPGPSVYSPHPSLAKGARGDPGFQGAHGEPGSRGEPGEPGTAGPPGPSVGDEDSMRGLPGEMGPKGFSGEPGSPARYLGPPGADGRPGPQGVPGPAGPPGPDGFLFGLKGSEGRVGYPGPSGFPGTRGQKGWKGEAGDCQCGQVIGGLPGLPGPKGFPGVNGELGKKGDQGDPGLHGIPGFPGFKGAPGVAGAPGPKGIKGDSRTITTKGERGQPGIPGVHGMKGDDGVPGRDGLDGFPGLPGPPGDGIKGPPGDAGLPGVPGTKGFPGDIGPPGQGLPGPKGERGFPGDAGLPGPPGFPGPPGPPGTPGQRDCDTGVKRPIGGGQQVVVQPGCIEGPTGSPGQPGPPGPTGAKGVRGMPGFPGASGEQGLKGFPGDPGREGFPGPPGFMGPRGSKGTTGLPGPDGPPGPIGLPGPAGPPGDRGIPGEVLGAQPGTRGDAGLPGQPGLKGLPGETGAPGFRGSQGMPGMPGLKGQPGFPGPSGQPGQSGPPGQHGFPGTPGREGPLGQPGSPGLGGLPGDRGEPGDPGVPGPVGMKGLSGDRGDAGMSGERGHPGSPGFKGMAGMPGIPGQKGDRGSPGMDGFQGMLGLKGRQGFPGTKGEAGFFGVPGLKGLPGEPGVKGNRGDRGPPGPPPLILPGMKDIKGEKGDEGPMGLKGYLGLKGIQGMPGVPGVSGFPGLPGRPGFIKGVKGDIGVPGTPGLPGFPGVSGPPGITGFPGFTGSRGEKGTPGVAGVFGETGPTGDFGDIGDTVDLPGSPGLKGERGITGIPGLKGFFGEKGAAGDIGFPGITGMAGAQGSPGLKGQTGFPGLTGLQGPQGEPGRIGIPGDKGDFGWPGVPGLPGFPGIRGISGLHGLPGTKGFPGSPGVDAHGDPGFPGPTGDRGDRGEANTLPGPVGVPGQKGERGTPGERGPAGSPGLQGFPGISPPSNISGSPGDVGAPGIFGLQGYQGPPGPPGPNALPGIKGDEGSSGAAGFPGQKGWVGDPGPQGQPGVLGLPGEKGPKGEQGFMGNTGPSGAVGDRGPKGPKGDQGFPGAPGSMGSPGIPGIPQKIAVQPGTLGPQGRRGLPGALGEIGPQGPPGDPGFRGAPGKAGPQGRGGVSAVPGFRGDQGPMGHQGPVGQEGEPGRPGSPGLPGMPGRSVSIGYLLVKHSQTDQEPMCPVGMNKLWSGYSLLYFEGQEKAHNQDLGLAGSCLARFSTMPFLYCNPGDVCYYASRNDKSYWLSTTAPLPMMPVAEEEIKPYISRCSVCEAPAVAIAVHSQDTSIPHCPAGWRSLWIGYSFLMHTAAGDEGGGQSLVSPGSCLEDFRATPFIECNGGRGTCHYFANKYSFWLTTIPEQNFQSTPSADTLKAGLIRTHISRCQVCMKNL

Turning to “KTKATVKIKNKQKSVNALKQKIVLLSK [Peptide 7c, 17x-3 variant]”, the binding to elastin result with elastin was “predominantly”. The “binding to the ECMs (for 17x-3: the ECMs other than hyaluronic acid)” value in [1] is “moderate binding”. For the same molecule, in the data set with collagen type I, the “binding to collagen type I” value is listed as “predominantly”. In [2], the “Ellipticity ratio (222 nm/208 nm)” value is 0.46, the “Ellipticity 208 nm” value was −131, the “Ellipticity 222 nm” value is −60.9 and the “wavelength Minimum of CD profile” value was 225 nm. Also, in data set [2] (20% TFE), the “Ellipticity ratio (222 nm/208 nm)” value came to 0.89, the “Ellipticity 208 nm” value was −290, the “Ellipticity 222 nm” value is listed as −259 and the “wavelength Minimum of CD profile” value is recorded as 224 nm. Further, the “binding to collagen type IV” value in the data set with collagen type IV is “predominantly”.

B1: Peptide BHP3 (peptide)
peptide: Biotin-TQLRNKYTFLARARNALAVRTKQNIKS-OH
SMILES: CC[C@H](C)[C@H](NC(=O)[C@H](CC(N)=O)NC(=O)[C@H](CCC(N)=O)NC(=O)[C@H](CCCCN)NC(=O)[C@@H](NC(=O)[C@H](CCCNC(=N)N)NC(=O)[C@@H](NC(=O)[C@H](C)NC(=O)[C@H](CC(C)C)NC(=O)[C@H](C)NC(=O)[C@H](CC(N)=O)NC(=O)[C@H](CCCNC(=N)N)NC(=O)[C@H](C)NC(=O)[C@H](CCCNC(=N)N)NC(=O)[C@H](C)NC(=O)[C@H](CC(C)C)NC(=O)[C@H](Cc1ccccc1)NC(=O)[C@@H](NC(=O)[C@H](Cc1ccc(O)cc1)NC(=O)[C@H](CCCCN)NC(=O)[C@H](CC(N)=O)NC(=O)[C@H](CCCNC(=N)N)NC(=O)[C@H](CC(C)C)NC(=O)[C@H](CCC(N)=O)NC(=O)[C@@H](NC(=O)CCCC[C@@H]1SC[C@@H]2NC(=O)N[C@@H]21)[C@@H](C)O)[C@@H](C)O)C(C)C)[C@@H](C)O)C(=O)N[C@@H](CCCCN)C(=O)N[C@@H](CO)C(=O)O
notes: Designed from the 42 residue peptide BH-P; biotinylated synthetic peptide
With B1, the binding result (in the data set with collagen type I (rat); in the data set with collagen type IV (mouse); in the data set with elastin (bovine); in data set [3]) was “no binding (tested: 5.0 mg/ml)” each time.

B2: Peptide 17x-3 (peptide)
peptide: Biotin-KTKATVLIKNKQKSKNALKQKIVLLSK-OH
SMILES: CC[C@H](C)[C@H](NC(=O)[C@H](CC(C)C)NC(=O)[C@@H](NC(=O)[C@@H](NC(=O)[C@H](C)NC(=O)[C@H](CCCCN)NC(=O)[C@@H](NC(=O)[C@H](CCCCN)NC(=O)CCCC[C@@H]1SC[C@@H]2NC(=O)N[C@@H]21)[C@@H](C)O)[C@@H](C)O)C(C)C)C(=O)N[C@@H](CCCCN)C(=O)N[C@@H](CC(N)=O)C(=O)N[C@@H](CCCCN)C(=O)N[C@@H](CCC(N)=O)C(=O)N[C@@H](CCCCN)C(=O)N[C@@H](CO)C(=O)N[C@@H](CCCCN)C(=O)N[C@@H](CC(N)=O)C(=O)N[C@@H](C)C(=O)N[C@@H](CC(C)C)C(=O)N[C@@H](CCCCN)C(=O)N[C@@H](CCC(N)=O)C(=O)N[C@@H](CCCCN)C(=O)N[C@H](C(=O)N[C@H](C(=O)N[C@@H](CC(C)C)C(=O)N[C@@H](CC(C)C)C(=O)N[C@@H](CO)C(=O)N[C@@H](CCCCN)C(=O)O)C(C)C)[C@@H](C)CC
notes: De novo designed 27-residue peptide, custom synthesized; the biotinylated peptides are used in every experiment; Self-assembles at higher concentrations
Turning to B2, the binding result (with collagen type I (rat); with collagen type IV (mouse); with elastin (bovine); in data set [3]) was “no binding (tested: 5.0 mg/ml)” in each case.

(Values after patent US20250026792A1, “SELF-ASSEMBLING PEPTIDES WITH HYALURONIC ACID BINDING DOMAINS AND METHODS OF USE THEREOF” (Northwestern University, priority 2022, published 2025).)
